# T1: murine lipopolysaccharide binding protein (mLBP-His6) (Mus musculus, UniProt Q61805 25-481)
# T1 sequence: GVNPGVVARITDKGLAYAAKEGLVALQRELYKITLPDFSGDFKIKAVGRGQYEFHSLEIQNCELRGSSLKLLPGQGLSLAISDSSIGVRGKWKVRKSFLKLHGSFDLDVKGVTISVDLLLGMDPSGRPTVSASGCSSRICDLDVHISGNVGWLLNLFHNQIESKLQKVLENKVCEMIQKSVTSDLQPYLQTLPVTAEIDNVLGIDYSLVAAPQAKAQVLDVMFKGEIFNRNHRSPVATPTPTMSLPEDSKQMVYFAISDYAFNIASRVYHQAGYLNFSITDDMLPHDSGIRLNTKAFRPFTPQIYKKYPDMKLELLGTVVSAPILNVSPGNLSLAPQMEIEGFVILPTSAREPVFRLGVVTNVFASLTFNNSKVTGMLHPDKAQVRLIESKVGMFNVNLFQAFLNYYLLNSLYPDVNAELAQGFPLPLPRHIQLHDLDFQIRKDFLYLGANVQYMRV
# B1: A011 (XNA)
# RNA: GGGAAUUCGAGCUCGGUACCGGACUGUGGAUUGUUCUGGGUGCCGCUUCUCCGAAUAUCGGACUCUCGAACUCCUGGGGACUGCAGGCAUGCAAGCUUGG
# modifications: 2'-fluoro C and U (all pyrimidines); A and G ribo
# B2: A011 del 76-100 (XNA)
# RNA: GGGAAUUCGAGCUCGGUACCGGACUGUGGAUUGUUCUGGGUGCCGCUUCUCCGAAUAUCGGACUCUCGAACUCCU
# modifications: 2'-fluoro C and U
# B3: A011 1-70 (3' boundary fragment) (XNA)
# RNA: GGGAAUUCGAGCUCGGUACCGGACUGUGGAUUGUUCUGGGUGCCGCUUCUCCGAAUAUCGGACUCUCGAA
# modifications: 2'-fluoro C and U
# B4: A036 (XNA)
# RNA: GGGAAUUCGAGCUCGGUACCGAUAUACGGUGCCGCUUCUCUAACCGGUGGUCAUGCGGUUGGACGCUCGAACAGACUACUGCAGGCAUGCAAGCUUGG
# modifications: 2'-fluoro C and U
# Legend:
# EF-Tu = EF-Tu (Thermus thermophilus, UniProt Q5SHN6 2-406); assay: nitrocellulose filter binding; 140 mM NaCl, 2.7 mM KCl, 10 mM Na2HPO4, 1.76 mM KH2PO4, 2 mM MgCl2; pH not stated; 37 °C, 1 h; RNA refolded; mLBP 15-1000 nM; settings: label: 32P (internal or 5'); three-helix junction, helices P1-P4
# Sequence of EF-Tu (Q5SHN6 2-406): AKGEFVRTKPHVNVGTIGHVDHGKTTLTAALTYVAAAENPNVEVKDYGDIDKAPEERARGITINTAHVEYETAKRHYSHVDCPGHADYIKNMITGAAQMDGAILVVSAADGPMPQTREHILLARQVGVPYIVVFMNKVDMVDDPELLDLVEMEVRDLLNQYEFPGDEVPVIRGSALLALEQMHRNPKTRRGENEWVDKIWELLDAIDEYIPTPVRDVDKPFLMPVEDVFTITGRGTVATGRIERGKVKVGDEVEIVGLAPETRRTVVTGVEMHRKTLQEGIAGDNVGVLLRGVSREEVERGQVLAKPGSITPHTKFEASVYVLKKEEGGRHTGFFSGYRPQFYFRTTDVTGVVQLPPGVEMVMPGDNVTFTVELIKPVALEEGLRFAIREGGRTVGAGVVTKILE
# [1] = target: T1, murine lipopolysaccharide binding …; assay: nitrocellulose filter binding; 2 mM MgCl2; 140 mM NaCl, 2.7 mM KCl, 10 mM Na2HPO4, 1.76 mM KH2PO4, 2 mM MgCl2; pH not stated; 37 °C, 1 h; RNA refolded; mLBP 15-1000 nM; settings: protein: recombinant; tags: C-terminal His6; label: 32P (internal or 5'); three-helix junction, helices P1-P4
# [2] = target: T1, murine lipopolysaccharide binding …; assay: 140 mM NaCl, 2.7 mM KCl, 10 mM Na2HPO4, 1.76 mM KH2PO4, 2 mM MgCl2; pH not stated; 37 °C, 1 h; RNA refolded; mLBP 15-1000 nM; settings: protein: recombinant; tags: C-terminal His6; three-helix junction
# [3] = target: T1, murine lipopolysaccharide binding …; assay: boundary experiment, nitrocellulose filter retention; 200 or 400 nM mLBP; no apparent effect on affinity; 140 mM NaCl, 2.7 mM KCl, 10 mM Na2HPO4, 1.76 mM KH2PO4, 2 mM MgCl2; pH not stated; 37 °C, 1 h; RNA refolded; mLBP 15-1000 nM; settings: protein: recombinant; tags: C-terminal His6; label: 5' 32P; P1 pairs U6-G11 with C65-A70
# [4] = target: T1, murine lipopolysaccharide binding …; assay: nitrocellulose filter binding; affinity comparable to A011, among the best binders (screen range about 200-800 nM); 140 mM NaCl, 2.7 mM KCl, 10 mM Na2HPO4, 1.76 mM KH2PO4, 2 mM MgCl2; pH not stated; 37 °C, 1 h; RNA refolded; mLBP 15-1000 nM; settings: protein: recombinant; tags: C-terminal His6; label: 32P; three-helix junction (predicted)
binder,measurement,setting,value
B1,binding result,EF-Tu,no binding
same,Kd,[1],267 nM
B2,binding signal,[2],~5 fold reduction in affinity vs A011
B3,binding result,[3],binds
B4,binding result,[4],binds
